This passage reports switch fluorescence ratio results from the supplement of paper PMC10126150.

± gives the standard deviation of the averaged measurements.
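Further: ATP exposure 15 min at 22 °C before imaging.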

In the data set the test system is ATP. Kind of data set: switch fluorescence ratio, 500 uM ATP over buffer (Cy3 cluster intensity, sum of 5 cycles each) (fold (ratio)); higher = stronger signal-on switching upon ATP binding; sequences stand for … in TCGTCGGCAGCGTCAGATGTGTATAAGAGACAGTTTTTTTTTTTTTTTTTTTTTTTTT…TC. The settings on record: aptamer strand: ATP DNA aptamer (quencher-CACCTGGGGGAGTATTGCGGAGGAAGG + anchor), 100 nM annealed; ATP concentration: 500 uM. The method in brief:
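Per cluster, summed Cy3 intensity from the target cycles was divided by that from the buffer cycles to give the fluorescence ratio, then averaged per switch-domain sequence. Clusters outside 100-1000 RFU were excluded. The Cy3-labelled switching-strand clusters, on a modified Illumina MiSeq flow-cell, were annealed to 100 nM quencher-labelled ATP aptamer and imaged in selection buffer, then after 15 min with 500 uM ATP at 22 °C, for five cycles with NaOH stripping and re-annealing between them.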
In the case of GGCTGGATCT, the switch fluorescence ratio was 0.975 ± 0.027.

Consider TGTTGCGGAT, for which the switch fluorescence ratio is 1.24 ± 0.29.

On to GTTGAAGGAC, for which the switch fluorescence ratio is 0.996 ± 0.026.

Consider AAAGGTGGGG, for which the switch fluorescence ratio is 1.001 ± 0.01.

For the sequence ACTGCATCTA, the switch fluorescence ratio is 1.09 ± 0.033.

For GCGATGGGGA, the switch fluorescence ratio is 1.012 ± 0.0098.

Regarding TTATAAGCGA, the switch fluorescence ratio turned out to be 1.02 ± 0.035.

As to TTTAGCCTTT, the switch fluorescence ratio came out at 1.06 ± 0.11.

For CCGGTTCAGG, the switch fluorescence ratio worked out at 1.05 ± 0.016.

Consider AAGCAGGGAT, for which the switch fluorescence ratio is 0.999 ± 0.033.

With ACATCCAACG, the switch fluorescence ratio is 1.12 ± 0.028.

Turning to GAAAATAACG, the switch fluorescence ratio stood at 1.11 ± 0.15.

Consider GAGTGCGCTG, for which the switch fluorescence ratio was found to be 1.02 ± 0.04.

Take ACACAGCGGC: the switch fluorescence ratio amounted to 1.16 ± 0.046.

CGTTTGGGTA: the switch fluorescence ratio worked out at 0.999 ± 0.041.

On to AAGGGGGGAA, for which the switch fluorescence ratio was determined as 1.06 ± 0.21.

In the case of GTTGGCTTTC, the switch fluorescence ratio came to 1.019 ± 0.0077.

With TCGTAATCGC, the switch fluorescence ratio is 1.4113 ± 0.0014.

On to GTCGGTATTA, for which the switch fluorescence ratio turned out to be 0.984 ± 0.034.

With TTTCGCGGGC, the switch fluorescence ratio is 1.94 ± 0.53.

For AATTGTTGTT, the switch fluorescence ratio was determined as 0.998 ± 0.033.

As for CCAACGGCCA, the switch fluorescence ratio was determined as 1.2 ± 0.049.

As to GACCAAATTT, the switch fluorescence ratio was determined as 1.02 ± 0.064.

CGTCTTATTA: the switch fluorescence ratio was determined as 0.9826 ± 0.0028.

Consider AAGTCTGTTA, for which the switch fluorescence ratio worked out at 0.994 ± 0.032.

Take ATGAAAATAC: the switch fluorescence ratio amounted to 1.01 ± 0.03.

TGACGAGTAA: the switch fluorescence ratio is 1.5 ± 0.28.

CGGCATGAGG: the switch fluorescence ratio was found to be 0.972 ± 0.018.

For TTTGAATGCT, the switch fluorescence ratio was 0.952 ± 0.046.

Regarding TTTAAAACTT, the switch fluorescence ratio came to 2.03 ± 1.4.

With GGAGTCAGCG, the switch fluorescence ratio was determined as 0.977 ± 0.025.

Consider CTGGATTTAA, for which the switch fluorescence ratio is 1.0192 ± 7.7e-05.

On to TTTATGAGTT, for which the switch fluorescence ratio was 0.988 ± 0.029.

With AAACTGTAAT, the switch fluorescence ratio is 1.08 ± 0.017.

Take GAGGTATCAT: the switch fluorescence ratio was 0.9847 ± 0.0073.

In the case of TCTAGCCCTG, the switch fluorescence ratio is 1.06 ± 0.073.

For the sequence CATAAATGTT, the switch fluorescence ratio turned out to be 1.02 ± 0.016.

On to TTTGTGTTCA, for which the switch fluorescence ratio was 0.98763 ± 0.00075.

For the sequence TAATGTGGTA, the switch fluorescence ratio came to 0.979 ± 0.056.

With GATGGGGCGT, the switch fluorescence ratio is 0.989 ± 0.055.

Consider TAAGCAGGTT, for which the switch fluorescence ratio is 0.995 ± 0.017.

For the sequence AATAGTTACT, the switch fluorescence ratio is 1.0234 ± 0.00037.

On to AGGCCCACAT, for which the switch fluorescence ratio stood at 1.01 ± 0.046.

CGCTTCCGGG: the switch fluorescence ratio stood at 1.37 ± 0.059.

For the sequence ATAGAAAACT, the switch fluorescence ratio came to 1.4 ± 0.53.

Consider GGGTCAGGTA, for which the switch fluorescence ratio was found to be 0.996 ± 0.03.

As for CGAATAGCGG, the switch fluorescence ratio is 0.9757 ± 0.002.

TGGAATGTTG: the switch fluorescence ratio worked out at 1.02 ± 0.0078.

On to GGTGTAAGAG, for which the switch fluorescence ratio is 0.987 ± 0.031.

Take GTGTTGGGGC: the switch fluorescence ratio is 0.985 ± 0.038.

As for GTATAAATGC, the switch fluorescence ratio was determined as 0.988 ± 0.046.

In the case of TACTGGTGGT, the switch fluorescence ratio was 0.992 ± 0.016.

On to TTGAGAGGAG, for which the switch fluorescence ratio came out at 0.98 ± 0.02.

GGTATTCGAG: the switch fluorescence ratio was 1.02 ± 0.0013.

Turning to CCATTTCTTT, the switch fluorescence ratio worked out at 1.01 ± 0.067.

GTTAGTAATC: the switch fluorescence ratio is 1.06 ± 0.014.

On to GGGGCTGAGG, for which the switch fluorescence ratio is 0.93589 ± 0.00088.

Regarding CTTAGCCGGG, the switch fluorescence ratio amounted to 0.981 ± 0.032.

As for ATTTTAACTT, the switch fluorescence ratio is 1.35 ± 0.44.

For CCACTGATCG, the switch fluorescence ratio is 1.02 ± 0.022.

For TTTAAAGCGC, the switch fluorescence ratio was determined as 1.02 ± 0.043.

Take ATTGTGGGGT: the switch fluorescence ratio was found to be 0.977 ± 0.04.

As for AGATTACCTT, the switch fluorescence ratio was found to be 1.06 ± 0.017.

Take TCCGTGGGTG: the switch fluorescence ratio stood at 1.38 ± 0.21.

Consider GGTAGCAGCG, for which the switch fluorescence ratio was found to be 1.05 ± 0.059.

For the sequence TATGTTATGT, the switch fluorescence ratio was found to be 1.01 ± 0.052.

On to GGGGGATGTT, for which the switch fluorescence ratio came to 0.997 ± 0.026.

For CCGTCATTGT, the switch fluorescence ratio is 1.11 ± 0.02.

As to AAAGAAATTG, the switch fluorescence ratio was determined as 1.01 ± 0.035.

With TACGCGGGGT, the switch fluorescence ratio was 1.29 ± 0.45.

With GTGTGTGGCA, the switch fluorescence ratio is 1.03 ± 0.038.

With ACGGGGGAGG, the switch fluorescence ratio was found to be 1.02 ± 0.028.

GGACGGGTTA: the switch fluorescence ratio amounted to 1 ± 0.016.

As to GATCGAGACC, the switch fluorescence ratio stood at 1.024 ± 0.0044.

As to AAATACTTGC, the switch fluorescence ratio came to 1.14 ± 0.074.

Take TTCATGGGG: the switch fluorescence ratio was 0.9879 ± 0.0094.

Regarding ACGAAAAGTG, the switch fluorescence ratio amounted to 1.05 ± 0.072.

Regarding CAAATATACT, the switch fluorescence ratio was found to be 1.14 ± 0.13.

With CACGGGAACA, the switch fluorescence ratio was found to be 1.082 ± 0.0053.

For the sequence GGGACCCAGC, the switch fluorescence ratio was determined as 0.992 ± 0.039.

On to TCTTTGACGC, for which the switch fluorescence ratio was found to be 1.21 ± 0.013.

Take TAGGAGTAAG: the switch fluorescence ratio worked out at 1.01 ± 0.03.

AGACCGTGTT: the switch fluorescence ratio came to 1.03 ± 0.054.

For the sequence GCGTAACAGT, the switch fluorescence ratio amounted to 0.964 ± 0.045.

In the case of GCAGCATGC, the switch fluorescence ratio turned out to be 1.1 ± 0.17.

Regarding CAAACGTGTG, the switch fluorescence ratio came to 0.991 ± 0.041.

TTTCAGTTGT: the switch fluorescence ratio is 1.01 ± 0.016.

Regarding GCGGGGGGGA, the switch fluorescence ratio worked out at 1.01 ± 0.038.

Regarding AGGTTGTTAG, the switch fluorescence ratio was 1.01 ± 0.019.

As to TGAGCCATCG, the switch fluorescence ratio was 0.987 ± 0.02.

For the sequence GCTCGTACGT, the switch fluorescence ratio turned out to be 1.01 ± 0.031.

Take CTTATAACAG: the switch fluorescence ratio came out at 1.01 ± 0.018.

Take TTTTTAGAGT: the switch fluorescence ratio came to 0.985 ± 0.026.

With AGAGGTAGTA, the switch fluorescence ratio amounted to 1.017 ± 0.0066.

As to CGATGGGCTA, the switch fluorescence ratio worked out at 1.02 ± 0.056.

Regarding TCAAGGTTCT, the switch fluorescence ratio turned out to be 0.998 ± 0.014.

Turning to TGACGGATGC, the switch fluorescence ratio is 1.197 ± 0.01.

As for TCAAATGGGC, the switch fluorescence ratio was found to be 0.9965 ± 0.0031.

As to TTGGGGGCGC, the switch fluorescence ratio is 1.01 ± 0.031.

Regarding GATTGATGGT, the switch fluorescence ratio was 0.992 ± 0.021.

With CGCGATCTGT, the switch fluorescence ratio worked out at 1.18 ± 0.046.

Regarding ATATGAGCAG, the switch fluorescence ratio is 1.02 ± 0.024.

For TTGGATTTTC, the switch fluorescence ratio was determined as 1.04 ± 0.032.

Regarding AGGCTGGCTC, the switch fluorescence ratio came to 0.98 ± 0.01.

For the sequence CGAGGCCTGG, the switch fluorescence ratio turned out to be 1 ± 0.011.

In the case of GTTTTTCGCC, the switch fluorescence ratio came to 1 ± 0.02.

As for TTCCTGTCGT, the switch fluorescence ratio came to 1.004 ± 0.0021.

TAGCTGTTCG: the switch fluorescence ratio came to 0.9887 ± 0.004.

For the sequence CATGTAATTG, the switch fluorescence ratio worked out at 1.02 ± 0.015.

Take TAAGAAATGG: the switch fluorescence ratio was found to be 1.02 ± 0.079.

With ATGACAGGAT, the switch fluorescence ratio was determined as 1 ± 0.023.

In the case of TGTGTTAGAG, the switch fluorescence ratio came to 1.01 ± 0.019.

In the case of CCAATATTTA, the switch fluorescence ratio was determined as 0.994 ± 0.03.

For the sequence AATCAGCCTC, the switch fluorescence ratio came out at 1.01 ± 0.016.

Consider GAGACGTTTG, for which the switch fluorescence ratio worked out at 1.02 ± 0.054.

TAGCATGTGG: the switch fluorescence ratio came out at 1.0006 ± 0.0008.

Consider ATTAGGGTAT, for which the switch fluorescence ratio is 1.0078 ± 0.00026.

For TTTGGATACA, the switch fluorescence ratio amounted to 0.9739 ± 0.0012.

Take GAGGGTTAC: the switch fluorescence ratio was 1.006 ± 0.0062.

Regarding AAGGTATGTT, the switch fluorescence ratio turned out to be 0.981 ± 0.021.
